# Measured values taken from patent publication US20240409645A1.
# T1: mouse IL-2Rβ (mouse) (UniProt P16297)
# T1 sequence (looked up): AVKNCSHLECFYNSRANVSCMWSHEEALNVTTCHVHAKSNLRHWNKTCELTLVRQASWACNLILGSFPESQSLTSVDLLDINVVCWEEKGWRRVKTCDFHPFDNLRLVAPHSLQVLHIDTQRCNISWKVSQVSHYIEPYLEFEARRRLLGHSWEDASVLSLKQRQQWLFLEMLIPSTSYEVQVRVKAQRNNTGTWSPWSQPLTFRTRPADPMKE
# T2: mouse IL-2Rγ (mouse) (UniProt P34902)
# T2 sequence (looked up): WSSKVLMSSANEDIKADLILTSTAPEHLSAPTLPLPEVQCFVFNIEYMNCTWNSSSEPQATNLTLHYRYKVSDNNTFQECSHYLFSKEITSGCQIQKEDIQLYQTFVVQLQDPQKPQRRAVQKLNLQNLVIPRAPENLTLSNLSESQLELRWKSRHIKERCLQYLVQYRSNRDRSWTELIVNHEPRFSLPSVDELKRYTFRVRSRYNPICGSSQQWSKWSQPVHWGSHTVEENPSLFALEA
# Biological target: T1, mouse IL-2Rβ (mouse)
# Test: P.E. binding ELISA on coated protein
row,Binder,P.E. binding ELISA OD [OD450 nm]
1,FJ1427 P035MP06G01 (VHH) VHH: EVQLVESGGGLVQAGDSLRLSCVVSGRGFSTYTMGWFRQAPGKEREFVAAITWSTGRTSYADSVKGRFTISRENAENTVYLQMNSLELEDTAVYYCATDQVLWTTRPRDMRYWGQGTQVTVSF,0.049
2,FJ1427_P035MP03D10 (VHH) VHH: QVQLQESGGGLVQAGDSLRLSCVVSGRDFSGYTMGWFRQPPGKEREFVALITWSTGRVHYTDSVEGRFTISRDSAKNTVYLQMNSLKPEDTAVYTCAAGRVGYTTNLHSYDYSGQGTQVIVSA,0.047
3,FJ1427 P035MP03F09 (VHH) VHH: EVQLVESGGGLVQAGGSLTLSCAASGRAFSNYPVGWFRQAPGKEREFVAAITWLSGSTLYADSVEGRFTISRDNAKNTVYLLMSSLKPEDTALYFCAAALKTITRGQNDYSYWGQGTQVTVSS,0.048
4,FJ1427 P035MP03F11 (VHH) VHH: QVQLVESGGGLAQAGGSLRLSCAASGRTFSQDAKAWFRQAPGKEREFVAAITWSGRDTDYADSVKGRFTIARDNAKNTVYLQMDSLKPEDTAVYYCAVYPQGTIGPYFRSSNHYDYWGQGTQVTVSS,0.048
5,FJ1427 P035MP03C12 (VHH) VHH: QVQLVESGGGLVQAGGSLRLSCAASGRAFSTYSMGWFRQTPGKEREFVAIISESGGIIDYGDSVKGRFTLSRDNAKNTVSLQMSSLQPEDTAVYYCAAARDWFARTAYQYDYWGQGTQVTVSA,0.047
6,FJ1427_P035MP03B09 (VHH) VHH: QVQLVESGGGLVQAGGSLRLSCVVSGDVFVRYTMAWFRQAPGKEREFVTSITDSGRTTEYVDSVKGRFTVSRDNAKNTVYLQMNNLKPEDTAVYYCAANTDYFRIRSLDANTWGQGTQVTVSS,0.046
7,FJ1427 P035MP03B10 (VHH) VHH: QVQLVESGGGLVQAGGSLRLSCVVSGDVFVRYTMAWFRQAPGKEREFVAVVTDSGRTTEYVDSVKGRFTVSRDNAKNTVYLQMNNLKPEDTAVYYCAANTDYFQIRSVDNNAWGQGTQVTVSS,0.05
8,FJ1427 P035MP03B12 (VHH) VHH: EVQLVESGGGLVQAGGSLRLSCAASGDVFVRYTMAWFRQAPGKEREFVAAVTDSGRTADYVDSVKGRFTVSRDNAKNTVYLQMNNLKPEDTAVYYCAANTDYFQIRSLDRNTWGQGTQVTVSS,0.049
9,FJ1427 P035MP03C10 (VHH) VHH: QVQLVESGGGLVQAGGSLRLSCAASGRTFSTTEMGWFRQAPGKEREFVAAITWTGRGTMYAESVEGRFTISRENAKNMVYLQMNSLKPEDTAIYYCAAARRGRAAVRSEGGYDFWGQGTQVTVSS,0.047
10,FJ1427 P035MP03H10 (VHH) VHH: QVQLVESGGGLVQAGGSLRLSCAASGRTFSTTEMGWFRQAPGKEREFVAAITWTGRGTMYAESVEGRFTISRENAKNMVYLQMNSLKPEDTAIYYCAAARRGRAAVRSEGGYDFWGQGTQVTVSS,0.049
11,FJ1427 P035MP03D11 (VHH) VHH: QVQLVESGGGLVQAGGSLRLSCAASGRTFSTTDVGWFRQAPGKEREFVAAITWSSHSTLYADSVEGRFTVTRENAKNTVYLQMNSLKPEDTAVYYCAAVRRGWAVVRTEGAYDFWGQGTQVTVSA,0.049
12,FJ1427 P035MP03B11 (VHH) VHH: EVQLVESGGGLVQAGGSLRLACALSGDVFVRYTMAWFRQAPGKEREFVASVTDSGRTTDYVASVQGRFTVSRDNNKNTVYLQMNSLKPEDTAVYYCAANTDYFQIRSLDRNTWGQGTQVTVSS,0.052

# Second part, the binder after the results:
row,P.E. binding ELISA OD [OD450 nm],Binder
1,0.048,FJ1427_P035MP03G10 (VHH) VHH: QVQLVESGGGLVQAGGSLRLSCAASGRSYAMGWFRQAPGKEREFVAAISWSASSTYYSESVKGRFTISRENAKNTVYLQMNSLKPEDTAVYYCAVRASPFVAGSYDPSDDPADYGSWGQGTQVIVSS
2,0.048,FJ1427_P035MP03E10 (VHH) VHH: EVQLVESGGGLVQPGGSLRLSCAASGFTFRNYAMSWVRQAPGKGLEWVGGITGEGLGTIYQDSVEGRFTISRNNAKNTLYLQMNSLRSEDTAVYYCTKMASGTLFRDKPYEYTSRGQGTQVTVSS
3,0.054,FJ1427_P035MP03G09 (VHH) VHH: QVQLVESGGGLVQAGGSLRLSCVVSGDVFVRYTMAWFRQAPGKEREFVAVVTDSGRTTEYVDSVKGRFTVSRDNAKNTVYLQMNNLKPEDTAVYYCAANTDYFQIRSVDNNAWGQGTQVTVSS
4,0.048,FJ1427_P035MP06B02 (VHH) VHH: QVQLVESGGGLVQAGGSLRLSCVVSGDVFVRYTMAWFRQAPGKEREFVAAVTDSGRTTEYVDSVKGRFTVSRDNAKNTVYLQMNNLKPEDTAVYYCAANTDYFQIRSVDNNAWGQGTQVTVSS
5,0.05,FJ1427_P035MP03E11 (VHH) VHH: EVQLVESGGGLVQAGGSLRLSCVVSGDVFVRYTMAWFRQAPGKEREFVAAVTDSGRTTEYVDSVKGRFTVSRDNAKNTVYLQMNNLEPEDTAVYYCAANTDYFQIRSVDNNAWGQGTQVTVSS
6,0.052,FJ1427_P035MP03H09 (VHH) VHH: QVQLVESGGGLVQAGGSLRLSCAASGSIFSINAMGWFRQAPGKEREFVAAISRSGGSTAYVDSVKGRFTISRDNSKNMVHLQMNSLKSEDEAVYYCAATAAVGWTSRWITTDFDSWGQGTQVTVSS

# Biological target: T2, mouse IL-2Rγ (mouse)
# Test: PE binding ELISA, periplasmic extract on coated protein
row,Binder,OD (PE binding ELISA) [OD450 nm]
1,32-MP04A08 (VHH) VHH: QVQLVESGGGLVQAGGSLRLSCAASGRTFGSTAVGWFRQVPGKEREFVSAINRSGSATTYADSVKGRFTISRDNAKNTVYLQMNSLTPEDTGVYYCAADSLPYGRPYYFQRSAGEYDYWGQGTQVTVSS,0.05
2,27-MP04G01 (VHH) VHH: QVQLVESGGGLVQAGGSLTLSCAAPGRTFGTDVVGWFRQAPGKEREFVASISRSGDGIYYDDSVKGRFTISRNNAWNTVNLQMNSLKVEDTAVYYCAAGDGWSTYDYWGQGTQVTVSS,0.048
3,33-MP04C09 (VHH) VHH: QLQLVESGGGLVQAGGSLRLSCAASGPTFSRVAVGWFRQAPGKEREFVAAVNRPATMTKYADSVKGRFTVSRDNAKNTVDLQMNSMKPEDTAVYYCAADSVPYGRPYYWQTSAGDYDYWGQGTQVTVSS,0.047
4,30-MP04C03 (VHH) VHH: EVQLVESGGGWVQDGGSLRLSCALSGRTFVRGIMGWFRQAPGKEREFVARIIWHINSTRYADSVKGRFTISRDSAKNTMYLQMDSLRPEDTAVYYCAARDRYGSGNSLSPSAYDYWGQGTQVTVSS,0.048
5,29-MP04H02 (VHH) VHH: QVQLVESGGGLVQAGGSLRLACVASGLTFDNYYMGWFRQAPGKEREFVAGIIWNGDHTAYADSIKGRFTISRDNAKNTAYLRMNSLKPEDTAVYYCAATFWIERATTPDIGQYAYWGQGTQVTVSS,0.05
6,35-MP07G01 (VHH) VHH: QVQLQESGGGLVQGGGSLRLSCAASGGIFSSYAMGWFRQAPGKEREFVAAISRSGRSTNYADSVKGRFTISRDNAKSTVYLQMNSLKPEETAVYYCAAGRYYNSAYDPSPGDFGSWGHGTQVTVSS,0.045

# Next, values leading:
row,OD (PE binding ELISA) [OD450 nm],Binder
1,0.048,FJ1427_P035MP04B03 (VHH) VHH: QVQLQESGGGLVQAGESLRLSCAASGPTASRVAVAWFRQVPGKEREFVAVVNRPGTMTKYADSVKGRFTISRDSAKNTVYLQMNSLKPEDTAVYYCAADSVPYGRPYYFQTSAGNYDYWGQGTQVTVSS
2,0.048,FJ1427_P035MP04B02 (VHH) VHH: QVQLVESGGGWVQVGESLRLSCAPSGRTFVSGIMGWFRQTPGKEREFVARIILNNNSTRYTDSVKGRFTISRDSAKNTMYLQMNTLRPEDTAVYYCAARDRYGSGNSLSPSAYDYWGQGTQVTVSS
3,0.052,FJ1427_P035MP04A03 (VHH) VHH: EVQLVESGGGWVQVGESLRLSCAPSGRTFVSGIMGWFRQTPGKEREFVARIILNNNSTRYTDSVKGRFTISRDSAKNTMYLQMNTLRPEDTAVYYCAARDRYGSGNSLSPSAYDYWGQGTQVTVSS
4,0.049,FJ1427_P035MP04E02 (VHH) VHH: QVQLVESGGGWVQVGESLRLSCAPSGRTFVSGIMGWFRQTPGKEREFVARIILNNNSTRYTDSVKGRFTISRDSAKNTMYLQMNTLRPEDTAVYYCAARDRYGSGNSLSPSAYDYWGQGTQVTVSS
5,0.049,FJ1427_P035MP04C01 (VHH) VHH: QVQLVESGGGLVQAGGSLTLSCAASGRTFSTDVVGWFRQAPGKEREFVASISRSGDGIYYDDSVKGRFTISRNNAWNTVNLQMNNLKVEDTAVYYCAAGDGWSTYDYWGQGTQVTVSS
6,0.049,FJ1427_P035MP04F02 (VHH) VHH: QLQLVESGGGLVQAGGSLTLSCAASGRTFSRDVVGWFRQAPGKEREFVASISRSGDGTFYTDSVKGRFTISSRDNAKNTVLLQMNSLKVEDTAVYYCAAGDGWSTYDYWGQGTQVTVSS
